From publication PMC7294632, “Structure-guided protein engineering increases enzymatic activities of the SGNH family esterases” (Biotechnology for Biofuels, 2020)

B1: AlinE4 (Altericroceibacterium indicum) (protein)
chain: SMGESRVILAFGDSLFAGYGLDKGESYPAKLETALRSHGINARIINAGVSGDTTAAGLQRIKFVLDSQPDKPELAIVELGGNDLLRGLSPAEARQNLSGILEELQRRKIPILLMGMRAPPNLGAKYQREFDGIYPYLAEKYDAKLVPFFLEAVADRPDLIQKDHVHPTARGVEELVSATSNAVAKALPAKK
notes: expressed in E. coli BL21 (DE3) from pSMT3, N-terminal His-Sumo tag removed with ULP1; monomer in solution by MALS, domain-swapped dimer in crystal
B2: CrmE10 (Croceicoccus marinus) (protein)
chain: MADGEAAGQQADAVMPTGPAIDVLAFGDSLFAGYRLDRDESYPARLQAALRERGLNVNVTNAGVSGDTTAAGLQRIDFVLDSMAGEPDLVLLELGANDMLRGLPAEEARRNLDTILQRLDQRDIPVMVYGMRAAPNLGGDYGRSFDSIFPDLADKYDAELVPFFIEPLIFDRSLVQQDQLHPTAQGVDAMVEQTVEQVEDRIDDL
notes: as for B1

Experiments:
[1] = substrate: CCCC(=O)Oc1ccc([N+](=O)[O-])cc1; assay: purified protein; assay type: biochemical, Altericroceibacterium indicum; settings: 100 mM Tris-HCl pH 7.5, 40 °C, substrate 0.05-2 mM
[2] = substrate: CCCCCC(=O)Oc1ccc([N+](=O)[O-])cc1; assay: purified protein; assay type: biochemical, Croceicoccus marinus; settings: 100 mM Tris-HCl pH 7.5, 20 °C, substrate 0.05-2 mM

Row | Protein | Km [1] [µM] | kcat [1] [s⁻¹] | Km [2] [µM] | kcat [2] [s⁻¹]
1 | B1 | 100 | 25.8 |  | 
2 | B2 |  |  | 160 | 29.4
